{"source": "the DeepSol protein solubility set"}
{"experiment": "soluble on expression in E. coli; label from the status in PepcDB or PDB records"}
{"sequence": "MGSDKIHHHHHHMSFEVTFDGMRYSCVNCAYCCSCKNWRVFLSYFDMMRLKGYENYIEKSNSNYEHVLALRNGKCGLIENNLCRIQLEKSYDTKPAMCRLFPFSFMVKWNGDLLLILKHYCGGVQVGKCSKKTIKHAIECCEELYHDQLSEFSLDFAERSDKTSLNEKTEICWEERAELGKYFFKIKKFDSFSEKYSEIFSEDISDSIEKLKSKNSCFDEKTQKLREKETLRYMYELNKREHFRKMSFKKELDNLINVGIIIDDYKDLLKGEGAVDSKLLLN", "soluble on expression in E. coli": "not soluble"}
{"sequence": "KWFRIDHVQEAHDAGVAVEDLFTRQIKVNHVVTGSDLVIDIHHTLGLEIIVSRIERDGQQTLPTASSRIHMGDVLSVVGTAEELDKAAHVLGDLLPGDPFHGHDLDYRRIFVSNQDLVGIPLAKLRPRLSGILITRVRRGDHDHVATPETVLQLGDRVRVVAAHDRMKSVTALFGDSYRRLSD", "soluble on expression in E. coli": "not soluble"}
{"sequence": "MSLSKVRISSKIEDCEEIINQYGGNYLSHLIYSGDKQFFTNENKTAFLMYRYKASSLVVLGDPLGDENAFDELLEAFYNYAEYLGYDVIFYQVTDQHMPLYHNFGNQFFKLGEEAIIDLTQFSTSGKKRRGFRATLNKFDELNISFEIIEPPFSTEFINELQHVSDLWLDNRQEMHFSVGEFNEEYLSKAPIGVMRNEENEVIAFCSLMPTYFNDAISVDLIRWLPELDLPLMDGLYLHMLLWSKEQGYTKFNMGMATLSNVGQLHYSYLRERLAGRVFEHFNGLYRFQGLRRYKSKYNPNWEPRFLVYRKDNSLWESLSKVMRVIRHKEGHHHHHH", "soluble on expression in E. coli": "soluble"}
{"sequence": "MDIVTLKDFYASVLGKRVQETLCGQLNLCWPDLTGKRVMGFGYALPYLSALRMRAQQCLAFMPAGQGALPWPCADKVATALVFEEDLPLPDASIDCILLIHALEYTENSFETLNEIWRVLVPNGQLIVIVPNRSGLWARNACTPFGYGEPYSRQQIVRLFEKTHFVSGSIQEVVHYMPSSGSVSRFFSFFYEPVARHLLPYFGGLLICQAQKRVYQGLEHHHHHH", "soluble on expression in E. coli": "not soluble"}
